Patent publication US20210054043A1 (HADASIT MEDICAL RESEARCH SERVICES AND DEVELOPMENT, published 2021)

T1: isolated ectodomain of SLAMF1 containing a 6-histidine tag (seSLAMF1) (UniProt Q13291 21-237, limits assumed)
T1 construct: extracellular domain; not shown: 6-histidine tag
T1 sequence (looked up): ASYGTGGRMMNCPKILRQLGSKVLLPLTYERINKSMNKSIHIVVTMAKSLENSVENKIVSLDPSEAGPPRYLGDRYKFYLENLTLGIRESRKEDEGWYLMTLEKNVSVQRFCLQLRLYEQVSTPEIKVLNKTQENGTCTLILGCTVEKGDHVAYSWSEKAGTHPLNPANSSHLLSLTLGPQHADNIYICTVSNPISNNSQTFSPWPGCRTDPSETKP

B1: isolated ectodomain of SLAMF7 containing a 6-histidine tag (seSLAMF7) (receptor, UniProt Q9NQ25 23-226, looked up)
chain: SGPVKELVGSVGGAVTFPLKSKVKQVDSIVWTFNTTPLVTIQPEGGTIIVTQNRNRERVDFPDGGYSLKLSKLKKNDSGIYYVGIYSSSLQQPSTQEYVLHVYEHLSKPKVTMGLQSNKNGTCVTNLTCCMEHGEEDVIYTWKALGQAANESHNGSILPISWRWGESDMTFICVARNPVSRNFSSPILARKLCEGAADDPDSSM
notes: extracellular domain; not shown: 6-histidine tag
B2: isolated ectodomain of SLAMF6^var1 containing a 6-histidine tag (Prospec, seSLAMF6) (receptor)
chain: QSSLTPLMVNGILGESVTLPLEFPAGEKVNFITWLFNETSLAFIVPHETKSPEIHVTNPKQGKRLNFTQSYSLQLSNLKMEDTGSYRAQISTKTSAKLSSYTLRILRQLRNIQVTNHSQLFQNMTCELHLTCSVEDADDNVSFRWEALGNTLSSQPNLTVSWDPRISSEQDYTCIAENAVSNLSFSVSAQKLCEDVKIQYTDTKM
notes: Bought reagent; Only the ectodomain stood in the assay; also called isolated SLAMF6^var1 ectodomain; not shown: 6-histidine tag
B3: Fc-fused ectodomain of SLAMF6^var1 (seSLAMF6_Fc, Creative Biomart) (Fc fusion)
chain: B2 chain
notes: Bought reagent, coated on the plate at 1 ug/ml; Only the ectodomain stood in the assay; also called full length seSLAMF6-Fc; SLAMF6^var1 ectodomain (Fc-conjugated); not shown: Fc portion
B4: isolated SLAMF6^var3 ectodomain (seSLAMF6^var3), human, C-terminal 6-histidine tag (receptor)
chain: GNVVSVPHETKSPEIHVTNPKQGKRLNFTQSYSLQLSNLKMEDTGSYRAQISTKTSAKLSSYTLRILRQLRNIQVTNHSQLFQNMTCELHLTCSVEDADDNVSFRWEALGNTLSSQPNLTVSWDPRISSEQDYTCIAENAVSNLSFSVSAQKLCEDVKIQYTDTKMGSHHHHHH
notes: Expressed in HEK293 cells and purified on a Ni column (Novoprotein/BonOpus); The N-terminus is heterogeneous; also called seSLAMF6-V3; soluble ectodomain of SLAMF6^var3

Experiments:
Assay in all cases: ELISA, seSLAMF6-Fc coated on the plate, anti-His-HRP detection
[1] = target: B3
Procedure: (§1) FIG. 11. seSLAMF6-V3 binding to full length seSLAMF6-Fc using ELISA. seSLAMF6-Fc was pre-coated to MaxiSorb plate. Soluble ectodomains from various SLAM family members (seSLAMF6, seSLAMF6-V3, seSLAMF1, seSLAMF7 and seSLAMF8, all containing 6-Histidine tags) were then added. An anti- Histidine antibody was used for detection.
(§2) MaxiSorb plates were pre-coated overnight with an Fc-fused ectodomain of SLAMF6^var1 (seSLAMF6_Fc, Creative Biomart, at 1 μg/ml and 4° C.). On the next day, the plate was washed and blocked using blocking buffer containing 1% BSA in PBSX1. Next, the plate was incubated for two hours with different concentrations of isolated ectodomains (containing 6-histidine tags) from SLAMF6^var1 (Prospec, seSLAMF6) or SLAMF6^var3 (Novoprotein/Bonopus, seSLAMF6-V3), or from SLAMF1, SLAMF7 or SLAMF8 (seSLAMF1, seSLAMF7 and seSLAMF8, respectively). The amount of receptor-bound ectodomain polypeptides was detected using horseradish peroxidase (HRP)-conjugated antibodies directed to the histidine tag (anti-HIS Abs) and quantified using an ELISA reader.

[2] = target: T1, isolated ectodomain of SLAMF1 …
Procedure: as §1, §2

[3] = target: T2, isolated ectodomain of SLAMF8 containing a 6-histidine tag (seSLAMF8) (UniProt Q9P0V8 23-233, limits assumed)
T2 construct: extracellular domain; not shown: 6-histidine tag
Procedure: as §1, §2

T2 sequence (Q9P0V8 23-233 limits assumed): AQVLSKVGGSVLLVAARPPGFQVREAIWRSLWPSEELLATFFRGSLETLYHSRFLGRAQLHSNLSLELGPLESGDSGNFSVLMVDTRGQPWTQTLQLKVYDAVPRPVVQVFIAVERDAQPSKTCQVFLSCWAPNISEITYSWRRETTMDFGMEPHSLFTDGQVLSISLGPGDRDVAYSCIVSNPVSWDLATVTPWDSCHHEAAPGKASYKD

binding result [1] | binding result [2] | binding result [3] | Binder
no binding |  |  | B1
binds |  |  | B2
 | no binding | no binding | B3
binds |  |  | B4
